Literature values, collected in article PMC3140970.

Target: IRSp53 SH3 (UniProt Q9UQB8)
Sequence (Q9UQB8 374-437): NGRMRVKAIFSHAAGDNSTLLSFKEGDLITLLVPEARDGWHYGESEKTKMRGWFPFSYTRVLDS

Eps8, sequence (Q08509 whole entry): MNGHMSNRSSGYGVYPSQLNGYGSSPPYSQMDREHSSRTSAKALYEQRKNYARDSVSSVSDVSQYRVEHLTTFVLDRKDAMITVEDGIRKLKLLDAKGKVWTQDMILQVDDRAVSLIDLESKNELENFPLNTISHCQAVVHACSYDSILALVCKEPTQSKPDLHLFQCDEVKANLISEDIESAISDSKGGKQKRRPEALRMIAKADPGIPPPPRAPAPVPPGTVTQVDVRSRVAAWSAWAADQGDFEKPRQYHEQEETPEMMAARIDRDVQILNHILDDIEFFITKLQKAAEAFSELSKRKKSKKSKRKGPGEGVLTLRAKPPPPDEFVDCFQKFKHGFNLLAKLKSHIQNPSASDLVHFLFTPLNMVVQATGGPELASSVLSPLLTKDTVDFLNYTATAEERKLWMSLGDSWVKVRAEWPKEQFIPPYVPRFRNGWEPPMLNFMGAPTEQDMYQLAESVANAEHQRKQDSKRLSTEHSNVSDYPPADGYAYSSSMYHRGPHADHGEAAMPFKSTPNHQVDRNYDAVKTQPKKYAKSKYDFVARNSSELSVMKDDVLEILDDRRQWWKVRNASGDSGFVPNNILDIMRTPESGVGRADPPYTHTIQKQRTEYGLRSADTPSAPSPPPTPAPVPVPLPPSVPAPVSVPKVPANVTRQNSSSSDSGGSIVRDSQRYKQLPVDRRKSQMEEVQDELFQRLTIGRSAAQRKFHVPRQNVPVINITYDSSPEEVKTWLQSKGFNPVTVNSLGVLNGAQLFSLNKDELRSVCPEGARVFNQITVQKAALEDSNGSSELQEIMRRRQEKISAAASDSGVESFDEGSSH

- Kd: 10 nM
Substance: Eps8 (from UniProt Q08509)
